# According to patent US20240317834A1, “COMPOSITIONS AND METHODS FOR NEUROLOGICAL DISEASES” (CODA BIOTHERAPEUTICS, INC., priority 2020, published 2024):
# Residue numbers refer to the chain shown, from its start. In names and notes the source's numbering stands.
# B1: CODA330: engineered chimeric LGIC receptor, L131F in SEQ ID NO: 33 (protein)
# chain: MRCSPGGVWLALAASLLHVSLQGEFQRKLYKELVKNYNPLERPVANDSQPLTVYFSLSLLQIMDVDEKNQVLTTNIWLQMSWTDHYLQWNVSEYPGVKTVRFPDGQIWKPDILLYNSADERFDATFHTNVFVNSSGHCQYLPPGIFKSSCPMDLKNFPMDVQTCKLKFGSWSYGGWSLDLQMQEADISGYIPNGEWDLVGIPGKRSERFYECCKEPYPDVTFTVTMRRRMGYYLIQMYIPSLLIVILSWISFWINMDAAPARVGLGITTVLTMTTQSSGSRASLPKVSYVKAIDIWMAVCLLFVFSALLEYAAVNFVSRQHKELLRFRRKRRHHKSPMLNLFQEDEAGEGRFNFSAYGMGPACLQAKDGISVKGANNSNTTNPPPAPSKSPEEMRKLFIQRAKKIDKISRIGFPMAFLIFNMFYWIIYKIVRREDVHNQ
# modifications: synthetic sequence of chimeric LGIC
# B2: CODA333: engineered chimeric LGIC receptor, L131S in SEQ ID NO: 33 (protein)
# chain: B1 chain with F131S
# modifications: synthetic sequence of chimeric LGIC
# Tested on: Lenti-X 293T cells
# Experiment: YFP fluorescence quenching anion reporter plate reader assay of engineered receptors stimulated with acetylcholine or a non-native ligand
# Assay type: cell-based
# Settings: for percent quench of YFP fluorescence, 30 nM TC-6683: TC-6683 30 nM; for percent quench of YFP fluorescence, 300 nM TC-6683: TC-6683 300 nM; for percent quench of YFP fluorescence, 3 uM TC-6683: TC-6683 3 uM; for percent quench of YFP fluorescence, 30 uM TC-6683: TC-6683 30 uM; for percent quench of YFP fluorescence, 100 uM TC-6683: TC-6683 100 uM; for percent quench of YFP fluorescence, 10 uM ach: acetylcholine 10 uM; for percent quench of YFP fluorescence, 100 uM ach: acetylcholine 100 uM; for percent quench of YFP fluorescence, 1 mM ach: acetylcholine 1 mM; for percent quench of YFP fluorescence, 3 mM ach: acetylcholine 3 mM
# From the text: To screen these mutant LGICs for those having novel response profiles to ligands, an anion reporter assay was developed to assess the function of the LGICs in a high throughput format. In this assay, cells expressing a YFP reporter whose fluorescence is quenched in the presence of anion are transfected with DNA encoding the channel of interest. Upon exposure to ligand, channels that are activated will flux anion, resulting in a dose-dependent quench of the YFP that can be detected on a plate reader. The greater the quench signal (i.e., the more positive the value), the higher the ligand activity on the receptor is.
# Lenti-X 293T cells (LX293T, Clontech) were maintained in DMEM containing 10% FBS and 1% penicillin/streptomycin (Invitrogen). […] Two days before assay, cells were split at a density of 20,000 cells/well in a 96-well tissue culture plate coated with poly-d lysine (Thermo Scientific). The next day, the cells were transiently transfected with 0.1 μg of DNA per well using standard Fugene protocol (Promega). On the day of assay, cells were washed 2 times in 1× extracellular solution (1×ECS: 140 mM NaCl, 5 mM KCl, 1 mM MgCl2, 2 mM CaCl2), 10 mM HEPES, 10 mM glucose, pH 7.2, mOsms 300). After the last wash, 100 μL of 1×ECS was added to the wells and the plate was incubated at 37° C. for 30 min. While incubating the plate, the drugs were diluted to a 2× concentration in 1×ECS-NaI (same components as 1×ECS except the 140 mM NaCl was replaced by 140 mM NaI). The plates were then read on a Flexstation3 (Molecular Devices). Each well, 8 wells at a time, of the plate is read for 2 min using a Flexstation3 (Molecular Devices) as follows: 1) a baseline YFP fluorescence is read for 17 sec, 2) 100 μL of ligand is added, and 3) the changes in YFP fluorescence are then measured every 1.3 sec for 1 minute and 43 seconds. The percent quench is calculated from the average fluorescence of the last 10 seconds of the read divided by the baseline average of the first 15 seconds prior to the ligand addition.
# FIGS. 1A-1J provide heat maps of the percent quench of YFP fluorescence following stimulation by various doses of either acetylcholine or the non-native ligand as indicated in the Figures. CODA71 (SEQ ID NO: 33) was used as a control, and CODA75 (SEQ ID NO: 29, a non-responding chimeric engineered receptor) was used as the negative control. Quenching of the fluorescence signal, as indicated by blue shaded cells, indicate the level of engineered receptor activation by the non-native ligand at that concentration.
molecule,measurement,setting,value
B1,YFP fluorescence quenching using CNL001,"1 nM CNL001, first column",76.289%
same,YFP fluorescence quenching using CNL001,"1 nM CNL001, second column",78.896%
same,YFP fluorescence quenching using TC-5619/Bradanicline,1 nM brd,−12.4%
same,YFP fluorescence quenching using TC-5619/Bradanicline,3 nM brd,25.12%
same,YFP fluorescence quenching using Varenicline,"3 nM var, first column",−3.016
same,YFP fluorescence quenching using Varenicline,"3 nM var, second column",−1.452
same,YFP fluorescence quenching using CNL001,"10 nM CNL001, first column",79.339%
same,YFP fluorescence quenching using CNL001,"10 nM CNL001, second column",80.245%
same,YFP fluorescence quenching using TC-5619/Bradanicline,10 nM brd,72.19%
same,YFP fluorescence quenching using TC-5619/Bradanicline,30 nM brd,76.35%
same,YFP fluorescence quenching using Facinicline,30 nM fac,2.9
same,YFP fluorescence quenching using Varenicline,"30 nM var, first column",−0.193
same,YFP fluorescence quenching using Varenicline,"30 nM var, second column",−1.853
same,YFP fluorescence quenching using CNL001,"50 nM CNL001, first column",80.831%
same,YFP fluorescence quenching using CNL001,"50 nM CNL001, second column",80.605%
same,YFP fluorescence quenching using ABT-126,50 nM abt,−16.22%
same,YFP fluorescence quenching using CNL001,"100 nM CNL001, first column",81%
same,YFP fluorescence quenching using CNL001,"100 nM CNL001, second column",80.663%
same,YFP fluorescence quenching using CNL002,100 nM CNL002,−3.76%
same,YFP fluorescence quenching using ABT-126,100 nM abt,−11.89%
same,YFP fluorescence quenching using AZD-0328,100 nM azd0328,27.56%
same,YFP fluorescence quenching using TC-5619/Bradanicline,100 nM brd,78.94%
same,YFP fluorescence quenching using ABT-126,300 nM abt,39.23%
same,YFP fluorescence quenching using AZD-0328,300 nM azd0328,73.35%
same,YFP fluorescence quenching using TC-5619/Bradanicline,300 nM brd,77.06%
same,YFP fluorescence quenching using Facinicline,300 nM fac,74.96
same,YFP fluorescence quenching using Varenicline,"300 nM var, first column",6.915
same,YFP fluorescence quenching using Varenicline,"300 nM var, second column",6.513
same,YFP fluorescence quenching using Varenicline,"500 nM var, first column",27.593
same,YFP fluorescence quenching using Varenicline,"500 nM var, second column",29.863
same,YFP fluorescence quenching using CNL001,"1 uM CNL001, first column",81.293%
same,YFP fluorescence quenching using CNL001,"1 uM CNL001, second column",81.428%
same,YFP fluorescence quenching using CNL002,1 uM CNL002,68.51%
same,YFP fluorescence quenching using ABT-126,1 uM abt,66.5%
same,YFP fluorescence quenching using TC-5619/Bradanicline,1 uM brd,78.61%
same,YFP fluorescence quenching using TC-6987,1 uM tc6987,53.37
same,YFP fluorescence quenching using Varenicline,"1 uM var, first column",67.499
same,YFP fluorescence quenching using Varenicline,"1 uM var, second column",65.57
same,YFP fluorescence quenching using Facinicline,10 uM fac,81.97
same,YFP fluorescence quenching using TC-6987,10 uM tc6987,74.23
same,YFP fluorescence quenching using CNL002,30 uM CNL002,77.77%
same,YFP fluorescence quenching using AZD-0328,30 uM azd0328,77.14%
same,YFP fluorescence quenching using Facinicline,30 uM fac,78.31
same,YFP fluorescence quenching using TC-6987,500 uM tc6987,72.25
same,"percent quench of YFP fluorescence, 30 nM TC-6683",,−22.26%
same,"percent quench of YFP fluorescence, 300 nM TC-6683",,−18.89%
same,"percent quench of YFP fluorescence, 3 uM TC-6683",,−9.45%
same,"percent quench of YFP fluorescence, 30 uM TC-6683",,−9.23%
same,"percent quench of YFP fluorescence, 100 uM TC-6683",,−10.75%
same,"percent quench of YFP fluorescence, 10 uM ach",,11.07%
same,"percent quench of YFP fluorescence, 100 uM ach",,43.34%
same,"percent quench of YFP fluorescence, 1 mM ach",,77.52%
same,"percent quench of YFP fluorescence, 3 mM ach",,74.89%
B2,YFP fluorescence quenching using CNL001,"1 nM CNL001, first column",76.165%
same,YFP fluorescence quenching using CNL001,"1 nM CNL001, second column",78.463%
same,YFP fluorescence quenching using TC-5619/Bradanicline,1 nM brd,−0.85%
same,YFP fluorescence quenching using TC-5619/Bradanicline,3 nM brd,−2.05%
same,YFP fluorescence quenching using Varenicline,"3 nM var, first column",−4.782
same,YFP fluorescence quenching using Varenicline,"3 nM var, second column",1.048
same,YFP fluorescence quenching using CNL001,"10 nM CNL001, first column",79.349%
same,YFP fluorescence quenching using CNL001,"10 nM CNL001, second column",78.238%
same,YFP fluorescence quenching using TC-5619/Bradanicline,10 nM brd,−2.8%
same,YFP fluorescence quenching using TC-5619/Bradanicline,30 nM brd,−2.07%
same,YFP fluorescence quenching using Facinicline,30 nM fac,6.27
same,YFP fluorescence quenching using Varenicline,"30 nM var, first column",2.084
same,YFP fluorescence quenching using Varenicline,"30 nM var, second column",5.022
same,YFP fluorescence quenching using CNL001,"50 nM CNL001, first column",80.221%
same,YFP fluorescence quenching using CNL001,"50 nM CNL001, second column",81.789%
same,YFP fluorescence quenching using ABT-126,50 nM abt,−20.99%
same,YFP fluorescence quenching using CNL001,"100 nM CNL001, first column",81.855%
same,YFP fluorescence quenching using CNL001,"100 nM CNL001, second column",80.766%
same,YFP fluorescence quenching using CNL002,100 nM CNL002,−15.44%
same,YFP fluorescence quenching using ABT-126,100 nM abt,−16.21%
same,YFP fluorescence quenching using AZD-0328,100 nM azd0328,38.49%
same,YFP fluorescence quenching using TC-5619/Bradanicline,100 nM brd,30.34%
same,YFP fluorescence quenching using ABT-126,300 nM abt,−13.34%
same,YFP fluorescence quenching using AZD-0328,300 nM azd0328,67.13%
same,YFP fluorescence quenching using TC-5619/Bradanicline,300 nM brd,50.56%
same,YFP fluorescence quenching using Facinicline,300 nM fac,69.8
same,YFP fluorescence quenching using Varenicline,"300 nM var, first column",12.162
same,YFP fluorescence quenching using Varenicline,"300 nM var, second column",12.979
same,YFP fluorescence quenching using Varenicline,"500 nM var, first column",29.238
same,YFP fluorescence quenching using Varenicline,"500 nM var, second column",25.614
same,YFP fluorescence quenching using CNL001,"1 uM CNL001, first column",81.707%
same,YFP fluorescence quenching using CNL001,"1 uM CNL001, second column",82.665%
same,YFP fluorescence quenching using CNL002,1 uM CNL002,15.21%
same,YFP fluorescence quenching using ABT-126,1 uM abt,4.96%
same,YFP fluorescence quenching using TC-5619/Bradanicline,1 uM brd,72.42%
same,YFP fluorescence quenching using TC-6987,1 uM tc6987,−3.87
same,YFP fluorescence quenching using Varenicline,"1 uM var, first column",43.863
same,YFP fluorescence quenching using Varenicline,"1 uM var, second column",39.346
same,YFP fluorescence quenching using TC-6987,3 uM tc6987,−20.2
same,YFP fluorescence quenching using TC-6987,5 uM tc6987,−15.25
same,YFP fluorescence quenching using Facinicline,10 uM fac,80.07
same,YFP fluorescence quenching using TC-6987,10 uM tc6987,4.92
same,YFP fluorescence quenching using AZD-0328,30 uM azd0328,80.61%
same,YFP fluorescence quenching using Facinicline,30 uM fac,81.35
same,YFP fluorescence quenching using TC-6987,30 uM tc6987,14.75
same,YFP fluorescence quenching using TC-6987,50 uM tc6987,21.33
same,YFP fluorescence quenching using TC-6987,100 uM tc6987,29.7
same,YFP fluorescence quenching using TC-6987,300 uM tc6987,20.79
same,YFP fluorescence quenching using TC-6987,500 uM tc6987,44.37
same,"percent quench of YFP fluorescence, 30 nM TC-6683",,−23.88%
same,"percent quench of YFP fluorescence, 300 nM TC-6683",,−21.46%
same,"percent quench of YFP fluorescence, 3 uM TC-6683",,−21.07%
same,"percent quench of YFP fluorescence, 30 uM TC-6683",,−16.15%
same,"percent quench of YFP fluorescence, 100 uM TC-6683",,−18.96%
same,"percent quench of YFP fluorescence, 10 uM ach",,−10.11%
same,"percent quench of YFP fluorescence, 100 uM ach",,−10.05%
same,"percent quench of YFP fluorescence, 1 mM ach",,32.11%
same,"percent quench of YFP fluorescence, 3 mM ach",,57.37%
